Data as given in article PMC5599369.

Target: gramicidin A (Bacillus brevis)
Test: single-channel electrophysiology

## gramicidin A (peptide)
  channel (dimer) lifetime: < 3 ms
